The values that follow come from patent publication US20140315185A1, “METHODS AND COMPOSITIONS FOR IMPROVING SPERM FUNCTIONALITY” (ANDROGENIX LTD., priority 2011, published 2014).

The test system of one data set is sperm. As to conditions: added in sufficient concentration and simultaneously with the H2O2; cited from earlier work.
In data set [1] the test system is bovine sperm. Nature of the data set: Catalase activity assay of conjugate-bound sperm. Format: cell-based. As to conditions: in 2.5×10^6 sperm cells after binding and removal of unbound conjugate. The procedure:
(§1) Recovery of the cholesterol-PEG5000-FITC-catalase was determined by Coomassie staining and catalase activity assay. For the catalase activity assay, 0.5 μl of test samples and serially diluted bovine catalase (Sigma) were placed in a microtitre plate, and incubated with 50 μl of 10 ng/ml of streptavidin-HRP (Biosource) and 50 μl of TMB substrate (Invitrogen) for 5 min. The plate was read at 450 nm on an EnVision plate reader (PerkinElmer) after stopping the reaction with 50 μl of 2 M sulfuric acid. Catalase activity of the test sample was calculated from the standard curve generated with known concentrations of bovine catalase.
1.5 ml of bovine sperm in liquid extender was carefully placed on top of 4 ml of 60%_Percoll™ PLUS (GE Healthcare) column, and centrifugated for 20 min at 700×g at 20° C. […] The binding of cholesterol-PEG5000-FITC-catalase to sperm was analysed by flow cytometry and catalase activity assay. […] The catalase activity of cholesterol-PEG5000-FITC-catalase bound sperm was measured as described in Example 1. 79 units of catalase activity were measured in 2.5×10^6 sperm cells after binding with cholesterol-PEG5000-FITC-catalase, whereas no catalase activity was detected in control sperm without addition of cholesterol-PEG5000-FITC-catalase.

The next data set concerns Jurkat cells. Nature of the data set: Catalase activity assay of treated Jurkat cells. As to conditions: units per 2.5×10^6 cells; incubated at 37° C. for 30 min, then centrifuged and resuspended. Format: cell-based, human. Here is the method: as §1
Jurkat cells (ATCC, TIB-152; human T lymphocyte cell line) were cultured in RPMI-1640 media with 10% fetal calf serum. For analysis, cells were removed from culture, centrifuged at 700×g for 5 min, the culture media was removed and cells were resuspended at a concentration of 5×10^7 cells/ml in PBS. […] The Jurkat cells were analyzed by both flow cytometry and catalase activity assay.
The catalase activity of the treated Jurkat cells was measured as described in Example 1. 50 μl of 5×10^7 cells/ml of each test sample was analysed in the assay and the catalase activity contained in each of the Jurkat samples was calculated from the standard curve. […]

Data set [2] concerns bovine sperm. Nature of the data set: Binding of cholesterol-PEG-catalase to sperm, flow cytometry. It is filed as cell-based. As to conditions: sperm incubated with 3 mg/ml conjugate at 37° C. for 30 min, unbound removed on Percoll PLUS. Here is the method: 1.5 ml of bovine sperm in liquid extender was carefully placed on top of 4 ml of 60%_Percoll™ PLUS (GE Healthcare) column, and centrifugated for 20 min at 700×g at 20° C. The resulting purified sperm pellet was resuspended in non-capacitating media (NCM; see Table 2) containing 0.1 mg/ml of BSA to a cell concentration of 5×10^7 ml. 200 μl of the purified sperm was mixed with an equal volume of 3 mg/ml cholesterol-PEG5000-FITC-catalase, and incubated light protected at 37° C. for 30 min. The unbound cholesterol-PEG5000-FITC-catalase was removed by layering 400 μl of sperm/cholesterol-PEG5000-FITC-catalase mixture on the top of 500 μl of 60% Percoll™ PLUS column, followed by centrifugation for 20 min at 700×g at 20° C. The sperm pellet was resuspended in NCM containing 0.1 mg/ml of BSA to a total volume of 400 μl. The binding of cholesterol-PEG5000-FITC-catalase to sperm was analysed by flow cytometry and catalase activity assay. […] The catalase activity of cholesterol-PEG5000-FITC-catalase bound sperm was measured as described in Example 1. 79 units of catalase activity were measured in 2.5×10^6 sperm cells after binding with cholesterol-PEG5000-FITC-catalase, whereas no catalase activity was detected in control sperm without addition of cholesterol-PEG5000-FITC-catalase.

For `N[C@@H](CCC(=O)N[C@@H](CS)C(=O)NCC(=O)O)C(=O)O` [glutathione, reference compound], the “rescue of H2O2-induced loss of motility” value in the data set with sperm is given as “able to rescue the loss of motility”.

B1: cholesterol-PEG5000-FITC-catalase: Bovine catalase covalently labelled with cholesterol-PEG5000-NHS-FITC; 4.0 to 5.4 cholesterol-PEG per catalase monomer (conjugate, UniProt P00432 2-527, looked up)
Catalase: ADNRDPASDQMKHWKEQRAAQKPDVLTTGGGNPVGDKLNSLTVGPRGPLLVQDVVFTDEMAHFDRERIPERVVHAKGAGAFGYFEVTHDITRYSKAKVFEHIGKRTPIAVRFSTVAGESGSADTVRDPRGFAVKFYTEDGNWDLVGNNTPIFFIRDALLFPSFIHSQKRNPQTHLKDPDMVWDFWSLRPESLHQVSFLFSDRGIPDGHRHMNGYGSHTFKLVNANGEAVYCKFHYKTDQGIKNLSVEDAARLAHEDPDYGLRDLFNAIATGNYPSWTLYIQVMTFSEAEIFPFNPFDLTKVWPHGDYPLIPVGKLVLNRNPVNYFAEVEQLAFDPSNMPPGIEPSPDKMLQGRLFAYPDTHRHRLGPNYLQIPVNCPYRARVANYQRDGPMCMMDNQGGAPNYYPNSFSAPEHQPSALEHRTHFSGDVQRFNSANDDNVTQVRTFYLKVLNEEQRKRLCENIAGHLKDAQLFIQKKAVKNFSDVHPEYGSRIQALLDKYNEEKPKNAVHTYVQHGSHLSAREKANL
modifications: cholesterol-PEG5000-FITC label
notes: Bovine catalase covalently labelled with cholesterol-PEG5000-NHS-FITC; 4.0 to 5.4 cholesterol-PEG per catalase monomer
For the molecule B1, the “catalase activity of bound sperm” value in the data set on bovine sperm [1] came to 79 units. The “catalase activity in Jurkat cells” value with Jurkat cells amounted to 66 U. Also, the “binding to live sperm (Hoechst 33258 negative)” value in the data set with bovine sperm [2] was “approx. 10 fold over background”.

B2: catalase: Bovine catalase (Sigma), used alone without the cholesterol-PEG5000-FITC linker; antioxidant enzyme (protein, listed as Bos taurus)
chain: MADNRDPASDQMKHWKEQRAAQKPDVLTTGGGNPVGDKLNSLTVGPRGPLLVQDVVFTDEMAHFDRERIPERVVHAKGAGAFGYFEVTHDITRYSKAKVFEHIGKRTPIAVRFSTVAGESGSADTVRDPRGFAVKFYTEDGNWDLVGNNTPIFFIRDALLFPSFIHSQKRNPQTHLKDPDMVWDFWSLRPESLHQVSFLFSDRGIPDGHRHMNGYGSHTFKLVNANGEAVYCKFHYKTDQGIKNLSVEDAARLAHEDPDYGLRDLFNAIATGNYPSWTLYIQVMTFSEAEIFPFNPFDLTKVWPHGDYPLIPVGKLVLNRNPVNYFAEVEQLAFDPSNMPPGIEPSPDKMLQGRLFAYPDTHRHRLGPNYLQIPVNCPYRARVANYQRDGPMCMMDNQGGAPNYYPNSFSAPEHQPSALEHRTHFSGDVQRFNSANDDNVTQVRTFYLKVLNEEQRKRLCENIAGHLKDAQLFIQKKAVKNFSDVHPEYGSRIQALLDKYNEEKPKNAVHTYVQHGSHLSAREKANL
For the molecule B2, the “rescue of H2O2-induced loss of motility” value in the data set on sperm is listed as “able to rescue the loss of motility”. In addition, the “catalase activity in Jurkat cells” value in the data set with Jurkat cells is listed as 44 U.
